According to US20180305438A1 (ACCELERON PHARMA, published 2018):

Legend:
Assay in all cases: Biacore (SPR)
[1] = molecular target: T1, hBMP4 (human, UniProt P12644 293-408)
T1 sequence (looked up): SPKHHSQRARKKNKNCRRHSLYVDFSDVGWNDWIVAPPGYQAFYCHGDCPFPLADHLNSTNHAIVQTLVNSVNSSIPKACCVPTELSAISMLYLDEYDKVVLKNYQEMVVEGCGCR

[2] = molecular target: T2, hBMP7 (human, UniProt P18075 293-431)
T2 sequence (looked up): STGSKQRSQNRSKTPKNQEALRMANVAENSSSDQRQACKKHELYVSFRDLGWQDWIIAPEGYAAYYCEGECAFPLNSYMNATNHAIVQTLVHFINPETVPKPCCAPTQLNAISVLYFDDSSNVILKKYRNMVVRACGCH

[3] = molecular target: hBMP2 (human, UniProt P12643 283-396)
Chain of hBMP2 (P12643 283-396 limits assumed): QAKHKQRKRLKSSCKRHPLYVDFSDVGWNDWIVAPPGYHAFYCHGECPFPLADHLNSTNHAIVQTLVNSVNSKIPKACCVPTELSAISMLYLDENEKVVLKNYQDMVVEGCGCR

B1: mALK3(24-152)-mFc derived from HEK 293 cells (Fc fusion)
chain: GAQNLDSMLHGTGMKSDLDQKKPENGVTLAPEDTLPFLKCYCSGHCPDDAINNTCITNGHCFAIIEEDDQGETTLTSGCMKYEGSDFQCKDSPKAQLRRTIECCRTNLCNQYLQPTLPPVVIGPFFDGSIRTGGGEPRVPITQNPCPPLKECPPCAAPDLLGGPSVFIFPPKIKDVLMISLSPMVTCVVVDVSEDDPDVQISWFVNNVEVHTAQTQTHREDYNSTLRVVSALPIQHQDWMSGKEFKCKVNNRALPSPIEKTISKPRGPVRAPQVYVLPPPAEEMTKKEFSLTCMITGFLPAEIAVDWTSNGRTEQNYKNTATVLDSDGSYFMYSKLRVQKSTWERGSLFACSVVHEGLHNHLTTKTISRSLGK
notes: The Gly-Ala at 23-24 may also be absent, since the main species of the human construct starts at Gln; also called mALK3-mFc
[1]
  Kd: 0.947 nM
[2]
  binding result: binds
[3]
  Kd: 2.43 nM
